Publication PMC5828407 (Veterinary Research, 2018)
Where no end group is shown, it is not given here. The star is where a group is joined. FITC = O=C1OC2(c3ccc(O)cc3Oc3cc(O)ccc32)c2ccc(NC(=S)*)cc21; Ahx = NCCCCCC(=O)O

T1: porcine aminopeptidase N (APN), His-tagged whole protein (porcine, UniProt P15145 1-963)
T1 sequence: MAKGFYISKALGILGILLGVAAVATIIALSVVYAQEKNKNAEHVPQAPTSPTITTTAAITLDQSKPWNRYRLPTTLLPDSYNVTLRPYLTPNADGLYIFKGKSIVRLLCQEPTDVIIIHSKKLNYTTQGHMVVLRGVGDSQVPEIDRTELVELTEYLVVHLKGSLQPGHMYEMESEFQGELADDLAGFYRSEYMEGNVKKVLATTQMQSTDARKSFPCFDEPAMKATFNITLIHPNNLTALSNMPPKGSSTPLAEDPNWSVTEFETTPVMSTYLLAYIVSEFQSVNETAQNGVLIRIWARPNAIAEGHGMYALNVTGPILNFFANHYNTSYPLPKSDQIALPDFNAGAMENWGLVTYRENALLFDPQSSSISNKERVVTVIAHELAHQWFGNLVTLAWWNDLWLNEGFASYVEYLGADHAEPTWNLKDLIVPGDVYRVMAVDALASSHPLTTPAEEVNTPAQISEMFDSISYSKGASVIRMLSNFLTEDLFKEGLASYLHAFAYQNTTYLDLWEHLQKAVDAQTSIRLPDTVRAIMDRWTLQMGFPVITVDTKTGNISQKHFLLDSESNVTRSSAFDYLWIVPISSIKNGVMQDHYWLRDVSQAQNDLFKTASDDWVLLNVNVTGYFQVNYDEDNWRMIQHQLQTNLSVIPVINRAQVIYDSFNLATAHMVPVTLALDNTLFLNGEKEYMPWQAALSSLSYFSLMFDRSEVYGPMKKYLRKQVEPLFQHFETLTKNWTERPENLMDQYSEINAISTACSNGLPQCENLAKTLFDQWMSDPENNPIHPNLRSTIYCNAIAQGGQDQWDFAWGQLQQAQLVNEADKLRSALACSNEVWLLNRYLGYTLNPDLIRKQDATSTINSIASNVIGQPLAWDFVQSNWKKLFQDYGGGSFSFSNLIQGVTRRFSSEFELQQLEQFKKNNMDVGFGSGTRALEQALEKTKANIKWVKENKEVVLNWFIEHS

B1: APN∆1 (401–963 AA) (domain or fragment)
chain: DLWLNEGFASYVEYLGADHAEPTWNLKDLIVPGDVYRVMAVDALASSHPLTTPAEEVNTPAQISEMFDSISYSKGASVIRMLSNFLTEDLFKEGLASYLHAFAYQNTTYLDLWEHLQKAVDAQTSIRLPDTVRAIMDRWTLQMGFPVITVDTKTGNISQKHFLLDSESNVTRSSAFDYLWIVPISSIKNGVMQDHYWLRDVSQAQNDLFKTASDDWVLLNVNVTGYFQVNYDEDNWRMIQHQLQTNLSVIPVINRAQVIYDSFNLATAHMVPVTLALDNTLFLNGEKEYMPWQAALSSLSYFSLMFDRSEVYGPMKKYLRKQVEPLFQHFETLTKNWTERPENLMDQYSEINAISTACSNGLPQCENLAKTLFDQWMSDPENNPIHPNLRSTIYCNAIAQGGQDQWDFAWGQLQQAQLVNEADKLRSALACSNEVWLLNRYLGYTLNPDLIRKQDATSTINSIASNVIGQPLAWDFVQSNWKKLFQDYGGGSFSFSNLIQGVTRRFSSEFELQQLEQFKKNNMDVGFGSGTRALEQALEKTKANIKWVKENKEVVLNWFIEHS
B2: APN∆5 (332–963 AA) (domain or fragment)
chain: PLPKSDQIALPDFNAGAMENWGLVTYRENALLFDPQSSSISNKERVVTVIAHELAHQWFGNLVTLAWWNDLWLNEGFASYVEYLGADHAEPTWNLKDLIVPGDVYRVMAVDALASSHPLTTPAEEVNTPAQISEMFDSISYSKGASVIRMLSNFLTEDLFKEGLASYLHAFAYQNTTYLDLWEHLQKAVDAQTSIRLPDTVRAIMDRWTLQMGFPVITVDTKTGNISQKHFLLDSESNVTRSSAFDYLWIVPISSIKNGVMQDHYWLRDVSQAQNDLFKTASDDWVLLNVNVTGYFQVNYDEDNWRMIQHQLQTNLSVIPVINRAQVIYDSFNLATAHMVPVTLALDNTLFLNGEKEYMPWQAALSSLSYFSLMFDRSEVYGPMKKYLRKQVEPLFQHFETLTKNWTERPENLMDQYSEINAISTACSNGLPQCENLAKTLFDQWMSDPENNPIHPNLRSTIYCNAIAQGGQDQWDFAWGQLQQAQLVNEADKLRSALACSNEVWLLNRYLGYTLNPDLIRKQDATSTINSIASNVIGQPLAWDFVQSNWKKLFQDYGGGSFSFSNLIQGVTRRFSSEFELQQLEQFKKNNMDVGFGSGTRALEQALEKTKANIKWVKENKEVVLNWFIEHS

What was measured:
Details in all cases: both partners purified
[1] = molecular target: T1, porcine aminopeptidase N (APN), …; assay: peptide or protein array; FaeG membrane: 205 spots of 13-mers offset by 3 on cellulose membrane, incubated with 1 mg/mL purified soluble APN, blotted with polyclonal antibodies against APN; intensity > 30% of the strongest spot positive
[2] = molecular target: T1, porcine aminopeptidase N (APN), …; assay: ELISA; APN protein coated on plates, incubated with FaeG peptides, fusion FaeG proteins or F4 fimbriae; absorbance at 450 nm
APN∆1 (401–963 AA) = molecular target: B1; assay: ELISA; indirect ELISA: APN and its five truncated proteins coated at 100 μg/mL in carbonate-bicarbonate buffer pH 9.6, incubated with 100 μg/mL FaeG fusion protein, detected with anti-F4 monoclonal antibody
APN∆5 (332–963 AA) = molecular target: B2; assay: as above
[3] = molecular target: GST-tagged FaeG fusion protein of F4ac (Escherichia coli, UniProt P14190 22-283); assay: as above

Binder	binding result [1]	binding result [2]	further results
LRAIFYGGLTTTV [FaeG membrane spot 59 (175–187 AA), F4ab]	binds	–	–
LSSIFYGGLPRGS [FaeG membrane spot 125 (176–188 AA), F4ac]	binds	–	–
NASYAGVFGKGGV [FaeG membrane spot 50 (148–160 AA), F4ab]	binds	–	–
NASYAGVLGRGGV [FaeG membrane spot 116 (149–161 AA), F4ac]	binds	–	–
HAIFYGGLPTNVK [FaeG membrane spot 181 (176–188 AA), F4ad]	binds	–	–
ASYAGALGRGGVT [FaeG membrane spot 172 (149–161 AA), F4ad]	binds	–	–
GST-tagged FaeG fusion protein of F4ab (natural protein) WMTGDFNGSVDIGGSITADDYRQKWEWKVGTGLNGFGNVLNDLTNGGTKLTITVTGNKPILLGRTKEAFATPVSGGVDGIPQIAFTDYEGASVKLRNTDGETNKGLAYFVLPMKNAEGTKVGSVKVNASYAGVFGKGGVTSADGELFSLFADGLRAIFYGGLTTTVSGAALTSGSAAAARTELFGSLSRNDILGQIQRVNANITSLVDVAGSYREDMEYTDGTVVSAAYALGIANGQTIEATFNQAVTTSTQWSAPLNVAITYY	–	binds	binding result (APN∆1 (401–963 AA)): binds; binding result (APN∆5 (332–963 AA)): binds
TKLFGSLSRNDILGQIQRV [FaeG membrane spots 133–135 (200–218 AA), F4ac]	binds	–	–
{FITC-Ahx}-NASYAGVFGKGGV [peptide F4ab 148–160]	–	binds	–
B1	–	–	binding result [3]: binds
B2	–	–	binding result [3]: binds
{FITC-Ahx}-ARTELFGSLSKNDILGQIQ [peptide F4ad 200–218]	–	binds	–
ARTELFGSLSKNDILGQIQ [FaeG membrane spots 189–191 (200–218 AA), F4ad]	binds	–	–
{FITC-Ahx}-TKLFGSLSRNDILGQIQRV [peptide F4ac 200–218]	–	binds	–
GST-tagged FaeG fusion protein of F4ad (natural protein) WMTGDFNGSVDIGGSITADDYRQKWEWKVGTGLNGFGNVLNDLTNGGTKLTITVTGNKPILLGRTKEAFATPVTSGVDGIPHIAFTDYEGASVELRNPDGETEKGLAYFVLPMKNAEGTKVGSVKVNASYAGALGRGGVTSADGELMSLFAEGSHAIFYGGLPTNVKNSELKGGSAAAARTELFGSLSKNDILGQIQRVNANITSLVNVPGSFNENMAYTDGSVVSVAYALGIANGQTIEATFNQAVTTSTQWSAPLNVAITYY	–	binds	binding result (APN∆1 (401–963 AA)): binds; binding result (APN∆5 (332–963 AA)): binds
